Experimental findings from patent US20150217006A1 (IMMUNOMEDICS, published 2015) are described below.

The target in assay [1] is T1, gastrin-releasing peptide receptor (GRPR) (human, UniProt P30550 1-384).
T1 construct: whole, on cells; also called GRP receptor; GRP-receptor
In words: competition with 125I-Bombesin on PC-3 cells, inhibitor 56 to 0.44 nM. On the procedure: (§1) We used IMP333 as a non-specific control. […] A range of 56 to 0.44 nM was used as our inhibitory concentrations.

The target of assay [2] is T1, gastrin-releasing peptide receptor …. The experiment in a line: competition with 125I-BBN on PC-3 cells, repeat experiment, inhibitor 250 to 2 nM. On the procedure:
as §1
This experiment was repeated using a commercially available BBN peptide. We increased the amount of inhibitory peptide from 250 to 2 nM to block the ¹²⁵I-BBN from binding to PC-3 cells.

T1 sequence (P30550 whole entry): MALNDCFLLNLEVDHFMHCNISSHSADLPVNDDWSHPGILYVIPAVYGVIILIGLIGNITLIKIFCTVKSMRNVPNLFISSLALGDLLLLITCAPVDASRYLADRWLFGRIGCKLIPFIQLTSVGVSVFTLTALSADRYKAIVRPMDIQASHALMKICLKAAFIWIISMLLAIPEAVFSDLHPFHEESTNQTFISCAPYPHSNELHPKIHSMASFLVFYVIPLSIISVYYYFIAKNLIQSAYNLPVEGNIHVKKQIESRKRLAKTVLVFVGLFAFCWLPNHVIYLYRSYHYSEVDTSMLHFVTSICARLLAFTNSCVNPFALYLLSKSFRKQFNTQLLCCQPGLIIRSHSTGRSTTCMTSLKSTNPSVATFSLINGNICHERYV

B1: IMP468 (NOTA-NH-(CH2)7CO-Gln-Trp-Val-Trp-Ala-Val-Gly-His-Leu-Met-NH2) (peptide)
peptide: QWVWAVGHLM
HELM: PEPTIDE1{[O=C(O)CN1CCN(CC(=O)O)CCN(CC(=O)[*:2])CC1].[O=C(CCCCCCCN[*:1])[*:2]].Q.W.V.W.A.V.G.H.L.M.[am]}$$$$V2.0
SMILES: CSCC[C@H](NC(=O)[C@H](CC(C)C)NC(=O)[C@H](Cc1c[nH]cn1)NC(=O)CNC(=O)[C@@H](NC(=O)[C@H](C)NC(=O)[C@H](Cc1c[nH]c2ccccc12)NC(=O)[C@@H](NC(=O)[C@H](Cc1c[nH]c2ccccc12)NC(=O)[C@H](CCC(N)=O)NC(=O)CCCCCCCNC(=O)CN1CCN(CC(=O)O)CCN(CC(=O)O)CC1)C(C)C)C(C)C)C(N)=O
notes: also called NOTA-conjugated bombesin derivative
One may read the IC50 as the midpoint of a concentration-inhibition curve. Low values mean inhibition by little substance, high ones a need for much substance. As for B1, the figures for the IC50 in assay [1] and in assay [2] were 21.5 nM and 35.9 nM, respectively.
